Source: article PMC3961267

Tested on: P266L T7 RNA polymerase (bacteriophage T7)
Assay: fluorescence anisotropy
Settings: Buffer A: 50 mM Tris-acetate, 50 mM sodium acetate, 10 mM magnesium acetate, 5 mM DTT, 25 C; pH not stated

Substance: TAMRA-labeled T7 consensus promoter DNA
- Kd: 3.6 nM
